Experimental data as given in paper PMC4239610, “A Peptide Derived from G0/G1 Switch Gene 2 Acts as Noncompetitive Inhibitor of Adipose Triglyceride Lipase” (The Journal of Biological Chemistry, 2014).

Target: T1, murine adipose triglyceride lipase, Strep fusion (Strep-mATGL) (mouse) (UniProt Q8BJ56)
T1 sequence: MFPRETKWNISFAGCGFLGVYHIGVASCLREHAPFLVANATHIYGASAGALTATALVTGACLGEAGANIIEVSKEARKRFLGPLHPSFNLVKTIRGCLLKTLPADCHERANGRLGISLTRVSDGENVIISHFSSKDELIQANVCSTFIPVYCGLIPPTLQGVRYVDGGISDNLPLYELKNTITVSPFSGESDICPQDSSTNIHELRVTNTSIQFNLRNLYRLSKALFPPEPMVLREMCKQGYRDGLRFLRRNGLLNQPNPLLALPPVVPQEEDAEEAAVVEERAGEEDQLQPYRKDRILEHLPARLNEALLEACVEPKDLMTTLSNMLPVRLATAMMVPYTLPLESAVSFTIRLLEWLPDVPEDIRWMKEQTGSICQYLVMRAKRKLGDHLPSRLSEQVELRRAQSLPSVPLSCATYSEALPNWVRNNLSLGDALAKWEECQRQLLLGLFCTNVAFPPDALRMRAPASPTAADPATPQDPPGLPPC

B1: human G0/G1 switch gene 2 protein, full length (hG0S2) (natural protein)
chain: METVQELIPLAKEMMAQKRKGKMVKLYVLGSVLALFGVVLGLMETVCSPFTAARRLRDQEAAVAELQAALERQALQKQALQEKGKQQDTVLGGRALSNRQHAS
Work on B1 yielded an IC50 of inhibition of CGI-58-stimulated mATGL TG hydrolase activity, dose-response with full-length hG0S2 of 19 nM.
